Data on one substance can be found in patent publication EP1486509A2, “Radiolabeled annexin-galactose cluster conjugates” (NEORX CORPORATION, priority 1994, dated 1996).

Series [1] concerns atrial thrombi and injured left atrium. On the set-up: species or system Yorkshire swine. The settings on record: in vivo. On the procedure:
Image acquisition was performed as described below. […] A final blood sample was taken for well counting.
D. Sample Collection. […] Each vial was counted for 1 minute.
Well counting ratios were obtained for a variety of tissue samples. For the injured tissues and thrombi, multiple specimens were usually taken from the same animal. In those cases, the maximum ratio for any one specimen is reported, as well as the average of all specimens taken. The maximum for each animal was averaged across all animals and is reported as the Maximum Anx-V Ratio.

The nature of series [2]: Blood clearance in the swine model. The settings on record: in vivo. The source says:
An animal model, as previously described in Example III, was employed to evaluate blood clearance of the molecules.

For “Tc-99m-annexin V: Annexin V radiolabeled with Tc-99m by a diamide dimercaptide N2S2 chelate (Example I)”, in series [1], the highest non-target localization entry is given as “kidney”. In series [2], the “%ID/g a” value is “%ID/g a = 0.0389” and the “%ID/g b” value is “%ID/g b = 0.0300”.
